The assay concerns the target IL-1 receptor (type I) on T24 cells (UniProt P14778). Briefly: cell-based or functional assay.
Chain of UniProt P14778 (P14778 18-569 limits assumed): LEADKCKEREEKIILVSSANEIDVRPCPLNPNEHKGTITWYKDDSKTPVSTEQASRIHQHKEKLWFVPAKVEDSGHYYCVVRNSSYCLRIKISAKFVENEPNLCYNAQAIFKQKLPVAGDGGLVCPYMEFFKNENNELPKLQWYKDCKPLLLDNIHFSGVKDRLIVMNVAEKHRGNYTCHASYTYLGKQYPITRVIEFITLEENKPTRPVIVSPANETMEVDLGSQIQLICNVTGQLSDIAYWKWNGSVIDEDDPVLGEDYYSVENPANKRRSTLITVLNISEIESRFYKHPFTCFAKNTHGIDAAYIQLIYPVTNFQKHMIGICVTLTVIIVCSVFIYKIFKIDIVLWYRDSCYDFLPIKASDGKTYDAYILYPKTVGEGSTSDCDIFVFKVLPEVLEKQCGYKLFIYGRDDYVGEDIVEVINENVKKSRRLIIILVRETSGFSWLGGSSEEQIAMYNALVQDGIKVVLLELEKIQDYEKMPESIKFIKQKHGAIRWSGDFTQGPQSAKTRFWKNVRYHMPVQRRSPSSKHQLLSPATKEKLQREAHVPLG

On to “His-tagged IL-1Ra wild type (without signal peptide) from E. coli (from UniProt P18510 26-177) (ligand)”, for which the inhibition of IL-1β-induced secretion of IL-8 from T24 cells, at 200 µg/ml came to 70%; the inhibition of IL-1β-induced secretion of IL-8 from T24 cells, at 600 µg/ml amounted to 50%; the inhibition of IL-1β-induced secretion of IL-8 from T24 cells, at 1800 µg/ml amounted to 100%; the inhibition of IL-1β-induced secretion of IL-8 from T24 cells, at 8000 µg/ml was 100%.

The substance “commercial IL-1Ra WT (obtained from Prospec Tany TechnoGene Ltd (Rehovot Israel)) (from UniProt P18510 26-177) (ligand)” displayed an inhibition of IL-1β-induced secretion of IL-8 from T24 cells, at 200 µg/ml above 70% and an inhibition of IL-1β-induced secretion of IL-8 from T24 cells, at 600 µg/ml or above of 100%.

The values above are taken from patent US20050159590A1.
